Reference: US9371374

Columns and labels:
Assay in all cases: EIA, captured mAb
[1] = molecular target: biotinylated HCV core peptide 134-154 (Peptide 1) (HCV-1)
[2] = molecular target: biotinylated HCV core peptide 141-161 (Peptide 2) (HCV-1)
[3] = molecular target: biotinylated HCV core peptide 151-171 (Peptide 3) (HCV-1)

Row | Binder | Reactivity (OD492) [1] [OD] | Reactivity (OD492) [2] [OD] | Reactivity (OD492) [3] [OD]
1 | HCV 208A-638 (antibody, V domains shown) VH: QGQLQQPGAEFVKPGASLKLSCRASGYTFTSYWIHWVKQRPGQGLEWIGEVDPSDSYINQNEKFRGKATLTVDKSSSTAYMQLGSLTSEDSAVYYCARHYYGVLDSWGQGTALTVSS VL: QIVLTQSPTIMSASLGERVTMTCTASSSVSSSYLHWFQQKPGSSPKLWIYSTSNLASGVPPRFSGSGSGTSYSLSISSVEAEDVATYYCLQFHRSPWTFGGGAKLEIKR | 0.07 | 2.96 | 0.09
2 | HCV 208B-1024 (antibody, V domains shown) VH: EVQLVESGGDLVKPGGSLKLSCAASGFTFSNYGMSWVRQTPDKRLEWVATISSGGSYSYYPDSVKGRFTISRDNAKNILYLQMSSLKSEDTAMYYCASLYYGYGDYWGQGTAFTVSS VL: DVLMTQTPLSLPVSLGDQASISCRSSQSIVHSNGNTYLEWYLQKLGQSPKLLIYRVSNRFSGVPDRFSGSGSGTDFTLKISRVEAEDLGVYYCFQGSHVPWTFGGGTKLEIKR | 0.08 | 0.75 | 0.15
3 | HCV 208B-281 (antibody, V domains shown) VH: QGQLQQSGAELVKPGASVKLSCKTSGFTFSSSYISWLKQRPGQSLEWIAWIYAGTGGTNYNQKFTDKAQLTVDTSSSTAYMQFSSLTTEDSAIYYCAISGTGFIYWGQGTLVTVSA VL: DVLMTQTPLSLPVSLGDQASISCRSSQSLVHNNGNTYLEWFLQKPGQSPKLLIYKVSNRFSGVPDRFSGSGSGTDFTLKISRVEAEDLGVYYCFQGSHVPFTFGSGTKLEIKR | 1.48 | 0.16 | 0.12
4 | HCV 208B-327 (antibody, V domains shown) VH: EVQLVESGGGLVKPGGSLKLSCAASGFTFSDSYMYWVRQTPDQRLEWVATISDGGSYTFYPDSVKGRFTISRDNAQNNLYLQMSSLKSEDTAMYYCASPHAGYFGWFAYWGRGTLVTVSA VL: DIVMTQAAFSNPVTPGTSVSISCRSSKSLLHSNGITYLYWYLQKPGQSPQLLIYQMSKIASGVPDRFRSSGSGTDFTLRISRVEAADVGVYYCAQNLELPWTFGGGTKLEIKR | 0.07 | 0.05 | 0.49
5 | HCV 208A-741 (antibody, V domains shown) VH: QLQQSGPVLVKPGASVMISCKTSGYTFTENAMHWVKQSHGKSLEWIGGVNPNNGDTIFNQKFKGKATLTVDKSSSTAFMELRSLTSEESTVYYCVRRELDFFDYWGQGTSVTVSS VL: DIVLTQSPASLAVSLGQRTTISCGASQSVSTSRFSYMHWYQQKPGQPPKLLIKYASNLESGVPARFSGSGSGTDFTLNIHPVAEEDTAAYYCQHSWEFPFTFGSGTKLEIKR | 1.2 | 3.37 | 0.06
6 | HCV 208A-830 (antibody, V domains shown) VH: EVRLQQPGPEVEKPGASVKISCKTSGYTFTEYAIHWVKQSHGESLEWIGGINPSNGDPIYNQIFKDKATLTVDRSSNTAYMGLRSLTVGDSGVYFCVRRQLDYFDFWGQGASLTVSS VL: DIVLTQSPASLAVSLGQRATISCRSSQSVSTSRYSYLHWYQQKPGQPPKLLIKYASNLESGVPARFSGSGSGTDFTLNIHPVGEEDPATYYCQHSWEFPFTFGSGTKLEIKR | 0.07 | 2.88 | 0.08
7 | HCV 208B-251 (antibody, V domains shown) VH: QLQQSGPVLVKPGASVKISCKTSGYTFTENAMHWVKQSHGKSLEWIGGVNPNNGDTIYNQKFKGKATLTVDKSSSTAFMELRSLTSEESPVYFCVRRELDFFDYWGQGTSVTVSS VL: DIVLTQSPASLAVSLGKKATISCRASQSVSTSRYSYMHWYQQKPGHPPKLLIKYASNLESGVPARFSGSGSGTDFTLNIHPVAEEDTAAYYCQHSWEFPFTFGSGTKLEIKR | 0.11 | 2.35 | 0.41
8 | HCV 208B-556 (antibody, V domains shown) VH: QLQQSGPVLVKPGASVMISCKTSGYTFTENAMHWVKQSHGKSLEWIGGVNPNNGDTIFNQKFKGKATLTVDKSSSTAFMEFRSLTSEESTVYYCVRRELDFFDYWGQGTSVTVSS VL: DIVLTQSPASLAVSLGQRATISCRASQSVSTSRYSYMHWYQQKPGQPPKLLIKYASNLESGVPARFSGSGSGTDFTLNIHPVAEEDTATYYCQHSWEFPFTFGSGTKLEIKR | 0.13 | 3.07 | 0.18
9 | HCV 208B-560 (antibody, V domains shown) VH: EVQLQQSGPELEKPGASVKISCKTSGYTFTEYAMHWVKQSHGMSLEWIGGINPSNGNAIYNQIFKDKATLTVDRSSSTAYMGLRSLTFGDSGVYFCVRRQLDFFDYWGQGASLTVSS VL: DIVVTQSPASLAVSLGQRATISCRASQSVSTSRYSYLHWYQQKPGQPPKLLIKYASNLESGVPARFSGSGSGTDFTLNIHPVGEEDTATYYCQHSWEFPFTFGSGTKLEIKR | 0.11 | 3.9 | 0.14
10 | HCV 208B-1096 (antibody, V domains shown) VH: QVQLQQSGAGLAKPGASVKMSCKASGYTFTANKMHWAKQRPGQGLEWIGYIDPSSGYTEYNHKIQYKATLTADTSSSTAYMQLSTLTFEDSAVYYCTNFAYWGQGTLVTVSA VL: DIVMTQTPLTLSVTIGQPASISCKSSQSLLFTNGKTYLNWFLQRPGQSPKRLIYLLSKLDSGVPDRFSGSGSGTDFTLKISRVEAEDLGVYYCLQSTYFPLTFGAGTKLELKR | 0.34 | 0.13 | 3.56
11 | HCV 208B-395 (antibody, V domains shown) VH: QVQLQQSGAGLAKPGASVKMSCKASGYTFTANKMHWTKQRPGQGLEWIGYIDPSSGYTQYNHKIQDKATLTADTSSSTAYMQLSSLTFEDSAVYYCTNFAYWGQGTLVTVSA VL: DIVLTQSPATLSVTPGDRVSLSCRASQRIYNYLHWYQQKSHESPRLLIKYASQSISGIPSRFSGSGSGTDFILTINSVETEDFGMYFCQQSNSWPLTFGAGTKLELRR | 0.54 | 0.13 | 3.69
12 | HCV 208B-547 (antibody, V domains shown) VH: QVQLQQSGAELAKPGASVKMSCKASGYTFTSNKMHWAKQRPGQGLEWIGYIDPSSGYTEYNQKIKDKATLTADKSSSTAYMQLSSLTSEDSAVYYCTNFAYWGQGTLVTVSA VL: EVVLTQSPAITAASLGQKVTITCRASSSVSYMHWYRQKSGTSPQPWIYEISTLASGVPTRFRASGSGTSYSLTISSMEAEDAAIYYCQQWNYPLTFGAGTKLELKR | 0.12 | 0.08 | 2.9
13 | HCV 208B-517 (antibody, V domains shown) VH: QVQLKQSGPGLVQPSQSLSITCTVSGFSLITHGVHWVRQSPGKGLEWLGVIWSGGSTDYNAAFISRLSISKDTSKSQVFLKMSSLQADDTAIYYCARNGGATAFDYWGQGTTLTVSS VL: DIVMTQSPATLSVTPGDRVSLSCRASQSISDYLHWYQQKSHESPRLLIKYASQSISGIPSRFRGSGSGSHFTLSINSVEPEDVGVYYCQNGHSFPWTFGGGTKLEIKR | 0.1 | 0.41 | 0.7
14 | HCV 208B-178 (antibody, V domains shown) VH: DVKLVESGGGLVKLGGSLKLSCAASGFTFSSYYMSWVRQTPEKRLELVAAINSNGGSTYYPDTVKGRFTISRDNAKNTLYLQMSSLKSEDTALYYCARHGGLGRRDWYFDVWGAGTTVTVSS VL: DIVLTQSPASLAVSLGQRATISCRASESVDNYGISFMHWYQQKPGQPPKLLIYRASNLESGIPARFSGSGSRTDFTLTINPVETDDVATYYCQQSNKDPFTFGSGAKLEIKR | 0.1 | 0.07 | 1.69
15 | HCV 208B-1094 (antibody, V domains shown) VH: EVQLQQSGPELVKPGASVKISCKTSGYTFTEYAMHWMKQSHGKSLEWIGGINPTNGDTIYNQRFKDKAKLTVDRSSSTAYMELRSLTSDDSALFYCARRELDYFASWGQGTTLTVSS VL: DIVLTQSPASLIVSLGQTATISCRASQSLSTSRFSYVHWIQQKPGQPPKLLIKYASNLESGVPVRFSGSGSGTDFTLNIHPVEEEDTATYFCQHSWEFPFTFGSGTKLKIKR | 0.12 | 3.28 | 0.13
16 | HCV 208A-877 (antibody, V domains shown) VH: QLQQSGPELVKPGASVKISCKTSGYTFTENAMHWVKQSRGKSLEWIGGVNPNNGDTVYTQKFKGKATLTVAKSSSTAYMELRTMTCEESTVYYCASREPDFFDYWGQGSSVTVSS VL: QIVLTQSPAIMSVSPGEKVSMTCSASSSVTYMHWYQQKSGTSPKRWIYDTSELASGVPARFSGSGSGTTYSLTISSMEAEDAATYYCQQWSNKPLTFGAGTKLELKR | 0.06 | 1.21 | 0.05
17 | HCV 208B-515 (antibody, V domains shown) VH: QVQLQQPGAELVKPGASLKLSCRASGYTFTSYWIHWVKQRPGQGLEWIGEIDPSDSYTNYNQKFKGKATLTVDKSSRAAYMQLSSLTSEDSAVYYCARHYYGVFDSWGQGTKLTVSS VL: QIVFTQYPAIMSASLGERVTMTCTASSSVTSSYLHWFQQKPGSSPKLWIYSTSNPGSGVPARFSGRGSGTSYSLSISSMEAEDAATYYCLQFHRSPWTFGGGTKLEIRR | 0.51 | 0.13 | 0.06
18 | HCV 208B-408 (antibody, V domains shown) VH: EVKLVESGGGLVQPGGSLRLSCASSGFTFTDYYMSWVRQPPGKALEWLGFIRNKAYGYTTEFSASVNGRFTISRDDSQSVPYLQMNTLRAEDSATYYCARVLYYDYGGFAYWGQGTLVTVST VL: DIQMTQSPASLSASVGETVTITCRASGNIHTYLAWYQQKQGKSPQLLVYNANTLADGVPSRFSGSGSGTQFSLKINSLQPDDFGSYYCQHFWSAPWTFGGGTQLEIKR | 0.81 | 0.2 | 0.16
19 | HCV 208B-189 (antibody, V domains shown) VH: QVHLQQSGAELAKPGASVQMSCKASGYTFTANKMHWARQRPRQGLEWIGYIDPASGYTEYNQKIKDRATLTADKSSSTAYMQLSSLTSEDSAVYYCTNFAYWGQGTLVTVST VL: not shown | 0.55 | 0.15 | 3.95
